The values below come from patent publication US20020177231A1 (published 2002).

The target in the assay is T1, PYK2 (UniProt Q14289 1-1009, limits assumed).
T1 construct: Endogenous protein in cell lysate, detected with anti-PYK2 monoclonal antibody P47120 (Transduction Labs)
As to the kind of experiment: GST pull-down from JY8-8 lysate, anti-Pyk2 immunoblot. On the procedure: In preparation of cell lysate including Pyk2, JY8-8 cell lysate was prepared by disrupting 4×10⁷ exponentially growing cells in one ml of Ipegal Lysis Buffer (described above) for 10 minutes on ice. Lysate was clarified by centrifugation at 10,000 rpm in a microfuge at 4° C. JY8-8 lysate (corresponding to approximately 1×10⁷ cells) was incubated for 90 minutes with 30 μl glutathione agarose on which approximately one μg of GST or GST-containing fusion protein was immobilized. The resin was washed three times with one ml Ipegal lysis buffer.
Pyk2 present in lysates of JY8-8 cells bound specifically to GST-LD protein but not to GST alone. Pyk2 binding was detected with wild-type GST-LD, and GST-LD proteins with mutations in the second or fourth LD motifs.

T1 sequence (Q14289 whole entry): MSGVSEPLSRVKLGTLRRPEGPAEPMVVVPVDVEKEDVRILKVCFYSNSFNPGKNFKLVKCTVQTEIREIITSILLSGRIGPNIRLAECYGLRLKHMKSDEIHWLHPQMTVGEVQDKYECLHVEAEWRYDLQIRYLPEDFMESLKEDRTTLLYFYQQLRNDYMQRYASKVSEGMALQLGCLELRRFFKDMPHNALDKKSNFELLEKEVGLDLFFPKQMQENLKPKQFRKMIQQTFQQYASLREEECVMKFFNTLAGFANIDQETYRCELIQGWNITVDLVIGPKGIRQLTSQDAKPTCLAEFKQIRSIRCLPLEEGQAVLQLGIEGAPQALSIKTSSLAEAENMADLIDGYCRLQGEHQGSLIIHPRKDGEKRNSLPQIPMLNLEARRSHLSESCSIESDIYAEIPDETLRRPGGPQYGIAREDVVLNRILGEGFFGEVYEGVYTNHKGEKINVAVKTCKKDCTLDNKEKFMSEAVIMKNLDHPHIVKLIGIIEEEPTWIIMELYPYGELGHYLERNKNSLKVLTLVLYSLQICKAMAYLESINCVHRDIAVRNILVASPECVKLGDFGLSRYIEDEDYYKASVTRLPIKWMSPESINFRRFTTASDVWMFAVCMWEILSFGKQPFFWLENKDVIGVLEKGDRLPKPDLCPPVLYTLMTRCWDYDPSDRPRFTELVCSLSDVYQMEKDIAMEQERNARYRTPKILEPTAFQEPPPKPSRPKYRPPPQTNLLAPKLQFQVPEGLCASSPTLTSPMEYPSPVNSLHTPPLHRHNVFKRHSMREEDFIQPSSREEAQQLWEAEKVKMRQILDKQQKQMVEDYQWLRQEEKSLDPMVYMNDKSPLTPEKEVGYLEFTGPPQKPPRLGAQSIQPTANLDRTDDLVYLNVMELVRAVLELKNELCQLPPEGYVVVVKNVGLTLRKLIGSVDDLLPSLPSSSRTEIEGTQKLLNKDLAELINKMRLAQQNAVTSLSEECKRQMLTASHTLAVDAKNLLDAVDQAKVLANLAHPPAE

B1: GST-LD with a mutation in the third LD motif (other)
chain: EELDALLEELERSTLQDSDEYSNPAPLPLDQHSRKETNLDETSEILSIQDNTSPLPAQLVYTTNIQELNVYSEAQEPKESPPPSKTSAAAQAAALMAHLTEMQAKVAVRADAGKKHLPDKQDHKASLDSMLGGLEQELQDLGIATVPK
notes: not shown: glutathione-S-transferase (GST) encoded by vector pGEX-4T-1 (Pharmacia)
With B1, the binding result was “no binding”.
